{"source": "paper doi:10.1101/2024.06.19.598823", "about": "(bioRxiv, 2024)", "key": {"[1]": {"biological_target": "6P stabilized SARS-CoV-2 S-ectodomain (prefusion-stabilized ancestral Wuhan spike ectodomain trimer) (SARS-CoV-2, ancestral Wuhan, stabilised)", "assay": "cryo-EM structure"}, "[2]": {"biological_target": "SARS-CoV-2 spike ectodomain, trimeric recombinant (SARS-CoV-2, ancestral (Wuhan) assumed, UniProt P0DTC2)", "assay": "cell-based or functional assay"}}}
{"binder": "nanobody 7F (VHH) VHH: EVQLVESGGGLVEAGGSLRLSCVASGLTFSDYTMAWFRQVPGQEREFVSHIGWGGSETYYADSVKGRFTISRDNAKNAMYLQMNELKPDDTAVYYCAADRGSSFYYVRESEYTFWGQGTQVTVSS", "values": [{"measurement": "stoichiometry N", "setting": "[1]", "result": "6 7F molecules per two spike trimers"}, {"measurement": "IC50 of neutralisation of VSV pseudotyped with SARS-CoV-2 spike on VeroE6 cells", "setting": "[2]", "result": 0.0334, "unit": "µM"}]}
